Test results: the supplement of paper PMC9170038

Test system: MS2 coat protein
Test: apparent KD of MS2 coat protein; designed switch direction (-1 OFF switch, 1 ON switch): -1; higher = weaker reporter binding
Summary of the method: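 Each step of the titration lasted 0.8–1.5 h at the lowest concentration and 10–20 min at the highest. The protein, SNAP-549-labelled MS2 coat protein, went from 0.7 or 1.5 nM doubling to 3 µM over RNA switches transcribed on Illumina chips by stalled E. coli RNA polymerase. Normalised cluster fluorescence was curve-fitted, and the per-design median over clusters is given as apparent KD.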

[1] = Eterna round: R95, input ligand: microRNA oligo, concentration not stated
[2] = input ligand: microRNA oligo, concentration not stated
[3] = Eterna round: R95, input ligand: FMN 200 uM
[4] = Eterna round: R95, input ligand: none

| Sequence | apparent KD of MS2 coat protein (input ligand: FMN 200 uM) [nM] | apparent KD of MS2 coat protein (input ligand: none) [nM] | apparent KD of MS2 coat protein [1] [nM] | apparent KD of MS2 coat protein [2] [nM] | apparent KD of MS2 coat protein [3] [nM] | apparent KD of MS2 coat protein [4] [nM] |
| --- | --- | --- | --- | --- | --- | --- |
| GGUUUUUCUGAGGAUAUUGCAUCACCCGAUUUAUAAGAAGGCAGAACAUGAGGAUCACCCAUGUGGGUCUCUAG [Bingo-Bango-27] (Eterna round: R97, puzzle: Exclusion 6) | 24.4 | 15.7 |  |  |  |  |
| GUAAACGUAUAGGAUAUUUCAGGUCAAAGCUGCAAAGAAGGAUGCACAUGAGGAUCACCCAUGUGGUCAAUAAA [Mod of Quesina 24 - Jieux - Exclusion 6] (Eterna round: R97, puzzle: Exclusion 6) | 25.7 | 22.2 |  |  |  |  |
| GUAAUACAUGAGGAUCACCCAUGUAAGGAUAUGCUAGCGGUCGGCUGACUGACUGCUAGCAGAAGGUACAUGAU [Mat - Mod of JL D77] (puzzle: Exclusion 1) |  |  | 87.2 |  |  |  |
| GUAAUUAAUGUAGGAUAUGCAAGGCGAACCUAAGCAGAAGGACAUGUGGAUCACCCAUGUAAUGCGGUCUGCGUACAGAUCGCU [salish99_ex1_NG1_002] (Eterna round: R96, puzzle: Exclusion NG 1) | 507 | 60.2 |  | 103 |  |  |
| GUAAUUAUAUAGGAUAUCGAUUUUAUUAUUUAACGAGAAGGAUGAACAUGAGGAUCACCCAUGUGGUAUCAUGG [JL-ex6-3.05] (puzzle: Exclusion 6) |  |  | 138 |  |  |  |
| GUAAUUGAUGUCAGGAUAUCAGGGCCACAAUGCUAUGAGAAGGGACAUGAGGAUCACCCAUGUAAAAGUUCAUG [BmEX4 B.16] (Eterna round: R97, puzzle: Brourd's mod of Exclusion 4) | 180 | 69.8 |  |  |  |  |
| GUACGUAGAGGAUAUGGUUAUGAUGACAUGAGGAUCACCCAUGUUAGAGUGGGUAGAUUUCCAGAAGGCUGUGAAC [Eternabot (L1) Solution 98] (Eterna round: R97, puzzle: Exclusion 5) | 1060 | 1330 |  |  |  |  |
| GUACUGACAGGAUAUACAUGAGGAUCACCCAUGUCCUUAAGCUGACAAAAGUCAGCAAGUAGAAGGGUCUGUAC [Omei Ex3 Model Bachelor's Dilema v1] (Eterna round: R97, puzzle: Exclusion 3) | 498 | 79.4 |  |  |  |  |
| GUACUGAGGCUUUGCUUUAAUCGUACAUGAGGAUCACCCAUGUAGGAUAUGGUAGGCUUUGCUUACCAGAAGGACAGAGUGAUC [JL EXNG3 1.23] (Eterna round: R96, puzzle: Exclusion NG 3) | 148 | 162 |  | 121 |  |  |
| GUAGAGUAAGGAUAUGCAGAAUAGGAUAGAAUGGUUAGAAUGUAGAAGGUACAUGAGGAUCACCCAUGUAAUGU [Excluse me!!!! 10 - Jieux - Exclusion 4] (puzzle: Exclusion 4) |  |  | 22.7 |  | 20.8 | 22.7 |
| GUAGAGUAAGGAUAUGCUGAAUAGGAUAGAAUGGUUAGAAAGUAGAAGGUACAUGAGGAUCACCCAUGUAAUGU [Excluse me!!!! 24 - Jieux - Exclusion 4] (puzzle: Exclusion 4) |  |  | 20.3 |  |  |  |
| GUAGAGUAAGGAUAUUGAGAAUAGGAUAGAAUGGUUAGAAUCAAGAAGGUACAUGAGGAUCACCCAUGUAAUGU [Excluse me!!!! 6 - Jieux - Exclusion 4] (puzzle: Exclusion 4) |  |  | 22.2 |  | 16.8 | 19.7 |
| GUAGAGUCAGGAUAUACAGAAGAAGCAUGGAAAACAUGGAUACAUGAGGAUCACCCAUGUAGAAGGGACUCUAC [ChP 11-04-2015 #2] (puzzle: Exclusion 2) |  |  | 33.2 |  | 83.6 | 41.5 |
| GUAGAGUCAGGAUAUACGAGAUCGAAAGAUCGGUAGUCCUUACAUGAGGAUCACCCAUGUAGAAGGGACUCUAC [Omei mod 7 to Eli's favorate candidate (ch.parushev)] (Eterna round: R97, puzzle: Exclusion 2) | 118 | 15.8 |  |  |  |  |
| GUAGCUUCGGCUACUACAAGCUUUUUGCUCGUCUUAUUAACAUGAGGAUCACCCAUGUACAAGAGACCUCAUGUAUU [Sensor v3 - turn-off variant 2 - 13] (puzzle: Sensor v3, turn-off variant 2) |  |  | 15.6 |  | 90.4 | 146 |
| GUAGCUUCGGCUACUACAAGCUUUUUGCUCGUCUUAUUAACAUGAGGAUCACCCAUGUCAAAGAGACCUCAUGUAUU [Sensor v3 - turn-off variant 2 - 5] (puzzle: Sensor v3, turn-off variant 2) |  |  | 28.2 |  | 420 | 462 |
| GUAUAUAGUGUGAGGAUAUGCUGGUCCUUGGAUCAGCAGAAGGCACAUGAGGAUCACCCAUGUAGUUAAAUAUG [Mat - Exclusion 4 - JL Mod - D21] (puzzle: Brourd's mod of Exclusion 4) |  |  | 26.3 |  |  |  |
| GUAUCGUGAGGAUAUCAUGAUUGACUUAGUUUAUGUCAGCGUGAGAAGGCACAUGAGGAUCACCCAUGUGAUUA [Ex4 - 3 - 7] (puzzle: Exclusion 4) |  |  | 23.1 |  |  |  |

| Sequence | apparent KD of MS2 coat protein (input ligand: FMN 200 uM) [nM] | apparent KD of MS2 coat protein (input ligand: none) [nM] | apparent KD of MS2 coat protein [1] [nM] | apparent KD of MS2 coat protein [2] [nM] | apparent KD of MS2 coat protein [3] [nM] | apparent KD of MS2 coat protein [4] [nM] |
| --- | --- | --- | --- | --- | --- | --- |
| GUCACAUGGAUGUAGGAUCACAUGAGGAUCACCCAUGUGACUAACAAGGUUUUUGCUCAUCUUAUGACUAUGUGAAU [A Brourd mod] (Eterna round: R97, puzzle: Sensor, turn-off variant 1) | 91.7 | 103 |  |  |  |  |
| GUCCCACAUGAGGAUCACCCAUGUGAGGAUAUGGUUUCGCUGGCCGUAGCCAGUGGAACCAGAAGGCGCAUGAU [Mat - Exclusion 1 - JL Mod - D2] (Eterna round: R97, puzzle: Exclusion 1) | 25.2 | 20.3 |  |  |  |  |
| GUCCGACAUGAGGAUCACCCAUGUGAGGAUAUGCGAUUAGCUGCUAGGUAGUUAGUAUGUAGAAGGUGCAUGAA [EX1 #75] (Eterna round: R97, puzzle: Exclusion 1) | 18.8 | 17.5 |  |  |  |  |
| GUCCUCGUGGCGCCUAAACACAUGAGGAUCACCCAUGUACAGGCUUUUUGCCGUCUUAUAAUAAAACCGAGGAUACG [Zaveonqu] (puzzle: Sensor v3, turn-off variant 1) |  |  | 121 |  | 20.3 | 20.9 |
| GUCCUGUGGCAGGAUAUGAAAACGUAGCAACGGUCAGAAGGGCCAACAUGAGGAUCACCCAUGUACCCGUAUGG [Eternabot (L1) Solution 62] (Eterna round: R97, puzzle: Exclusion 6) | 24.3 | 19.9 |  |  |  |  |
| GUCGAACAUGAGGAUCACCCAUGUGAGGAUAUGCGAAUUUCAUCAAAAGAUGAAAUUUGCAGAAGGCACACGAC [Omei Ex1 A15] (Eterna round: R97, puzzle: Exclusion 1) | 26.4 | 23.4 |  |  |  |  |
| GUCGCAAUGCAGGAUAUCCUGCUAUUCAAGGGAGGAGAAGGGCAGACAUGAGGAUCACCCAUGUGGUCCGUGCC [Eternabot (L1) Solution 3] (Eterna round: R97, puzzle: Exclusion 6) | 160 | 170 |  |  |  |  |
| GUCGUGCGGCAGUGCUGUACGAGUACAUGAGGAUCACCCAUGUAGGAUAUGGUUCGUUUUGCGUGCUAGAAGGGCGUGCGUUGA [Excl-NG3-LRO20] (Eterna round: R96, puzzle: Exclusion NG 3) | 20 | 22 |  | 14 |  |  |
| GUCUAGAGAGGAUAUAUUUACAGUGUACGUCGGAUGAUCGCACUUGAGGAUCACCCAAGUAGAAGGCUCGAGGG [EX2 #31] (Eterna round: R97, puzzle: Exclusion 2) | 875 | 1850 |  |  |  |  |
| GUGAGUAGUCAGGAUAUGCUGUACAAAAGUACAGCAGAAGGGAUUACAUGAGGAUCACCCAUGUGUACUUCAUG [Omei Ex6 B10] (Eterna round: R97, puzzle: Exclusion 6) | 940 | 322 |  |  |  |  |
| GUGAGUGGUCAGGAUAUGCUGUACAAAAGUACAGCAGAAGGGAUUACAUGAGGAUCACCCAUGUUUACUUCAUG [Omei Ex6 B4] (Eterna round: R97, puzzle: Exclusion 6) | 125 | 90.2 |  |  |  |  |
| GUGCACGUAGGAUAUUAGAAGGAGAACAUGAGGAUCACCCAUGUUAUCCAUCACCUCCGCUAAGAAGGAUGGCCAC [EX5 C.6] (Eterna round: R97, puzzle: Exclusion 5) | 14.1 | 13 |  |  |  |  |
| GUGCCGCGAGGAUAUACAGACGGGUCCAAAACGUGUCUCGGACUUGAGGAUCACCCAAGUAGAAGGCGUAUCAG [salish99_ex2_r4_619] (Eterna round: R97, puzzle: Exclusion 2) | 27.8 | 21.4 |  |  |  |  |
| GUGCCGCGAGGAUAUACAGACGGGUCCAUAACGUGUCUCGGACUUGAGGAUCACCCAAGUAGAAGGCGUUUCAG [salish99_ex2_r4_623] (Eterna round: R97, puzzle: Exclusion 2) | 19.9 | 20.8 |  |  |  |  |
| GUGCGGUGAGGAUAUACGUAGGUGAAAAUCUGUGUGUUCCUACAUGAGGAUCACCCAUGUAGAAGGCAUGUCAC [LRO-Excl2-14] (puzzle: Exclusion 2) |  |  | 47.6 |  |  |  |
| GUGCUAUAGGAAGGAUAUACUUCAUUAUUUAGACAUGAGGAUCACCCAUGUAACCUUAUGUAUGUGUAGAAGGUCCAUAGCUUA (Eterna round: R96, puzzle: Exclusion NG 2) | 93.2 | 38.8 |  | 35.1 |  |  |
| GUGGAACAUGAGGAUCACCCAUGUGAGGAUAUGUGAGAAGGAUUUGAGAGGGAGAGGGACAGAAGGCACUAGGA [JR_Exclu1_Sub084] (puzzle: Exclusion 1) |  |  | 33.6 |  | 32.7 | 41.9 |
